Here are results for 32 variants from the RNAGym collection of RNA variant scans (doi:10.7554/elife.80360).

B1: HDV Ribozyme (parent)
chain: GGCCGGCAUGGUCCCAGCCUCCUCGCUGGCGCCGGCUGGGCAACAUUCCGAGGGGACCGUCCCCUCGGUAAUGGCGAAUGGGACCCA

Variants of B1 are the subject of this data set. As to the kind of experiment: self-cleavage, relative activity (ratio to wild type); higher = more cleavage; co-transcriptional.
For the variant GGCCGGCAUGGUCCCAGCCUCCUCGCUGGCGCCGGCUGGGCAACAUUCCGAGGGGACCGUCCCCUCGGUAACGGCGAACGGGACCCA [U72C U79C], the self-cleavage amounted to 0.277.

In the case of GGCCGGCAUGGUCCCAGCCUCCUCGCUGGCGCCGGCUGGGCAACAUUCCGAGGGGACCGUCCCCUCGGUAACGGCGAAAGGGACCCA [U72C U79A], the self-cleavage came out at 0.369.

With GGCCGGCAUGGUCCCAGCCUCCUCGCUGGCGCCGGCUGGGCAACAUUCCGAGGGGACCGUCCCCUCGGUAACGGCGAAUGGGACCAA [U72C C86A], the self-cleavage stood at 0.712.

On to GGCCGGCAUGGUCCCAGCCUCCUCGCUGGCGCCGGCUGGGCAACAUUCCGAGGGGACCGUCCCCUCGGUAACGGCGAAUGGGACCUA [U72C C86U], for which the self-cleavage was found to be 0.57.

On to GGCCGGCAUGGUCCCAGCCUCCUCGCUGGCGCCGGCUGGGCAACAUUCCGAGGGGACCGUCCCCUCGGUAACGGCGAAUGGGACACA [U72C C85A], for which the self-cleavage amounted to 0.633.

For GGCCGGCAUGGUCCCAGCCUCCUCGCUGGCGCCGGCUGGGCAACAUUCCGAGGGGACCGUCCCCUCGGUAACGGCGAAUGGGACGCA [U72C C85G], the self-cleavage is 0.453.

Take GGCCGGCAUGGUCCCAGCCUCCUCGCUGGCGCCGGCUGGGCAACAUUCCGAGGGGACCGUCCCCUCGGUAACGGCGACUGGGACCCA [U72C A78C]: the self-cleavage was 0.229.

As to GGCCGGCAUGGUCCCAGCCUCCUCGCUGGCGCCGGCUGGGCAACAUUCCGAGGGGACCGUCCCCUCGGUAACUGCGAAUGGGACCCA [U72C G73U], the self-cleavage was determined as 0.272.

For GGCCGGCAUGGUCCCAGCCUCCUCGCUGGCGCCGGCUGGGCAACAUUCCGAGGGGACCGUCCCCUCGGUAAAGGCGAAUGUGACCCA [U72A G81U], the self-cleavage amounted to 0.166.

For the variant GGCCGGCAUGGUCCCAGCCUCCUCGCUGGCGCCGGCUGGGCAACAUUCCGAGGGGACCGUCCCCUCGGUAAAGGCGAAUGAGACCCA [U72A G81A], the self-cleavage was 0.113.

As for GGCCGGCAUGGUCCCAGCCUCCUCGCUGGCGCCGGCUGGGCAACAUUCCGAGGGGACCGUCCCCUCGGUAAAGGCGAAUGCGACCCA [U72A G81C], the self-cleavage stood at 0.0898.

Regarding GGCCGGCAUGGUCCCAGCCUCCUCGCUGGCGCCGGCUGGGCAACAUUCCGAGGGGACCGUCCCCUCGGUAAGGGCGAAUGGGGCCCA [U72G A83G], the self-cleavage was 0.58.

Turning to GGCCGGCAUGGUCCCAGCCUCCUCGCUGGCGCCGGCUGGGCAACAUUCCGAGGGGACCGUCCCCUCGGUAACGGCGAAUGGAACCCA [U72C G82A], the self-cleavage worked out at 0.248.

On to GGCCGGCAUGGUCCCAGCCUCCUCGCUGGCGCCGGCUGGGCAACAUUCCGAGGGGACCGUCCCCUCGGUAACGGCGAAUGGUACCCA [U72C G82U], for which the self-cleavage worked out at 0.145.

With GGCCGGCAUGGUCCCAGCCUCCUCGCUGGCGCCGGCUGGGCAACAUUCCGAGGGGACCGUCCCCUCGGUAACGGCGAAUGGCACCCA [U72C G82C], the self-cleavage was 0.26.

Turning to GGCCGGCAUGGUCCCAGCCUCCUCGCUGGCGCCGGCUGGGCAACAUUCCGAGGGGACCGUCCCCUCGGUAACGGCGAAUGAGACCCA [U72C G81A], the self-cleavage amounted to 0.356.

Consider GGCCGGCAUGGUCCCAGCCUCCUCGCUGGCGCCGGCUGGGCAACAUUCCGAGGGGACCGUCCCCUCGGUAACGGCGAAUGCGACCCA [U72C G81C], for which the self-cleavage turned out to be 0.271.

On to GGCCGGCAUGGUCCCAGCCUCCUCGCUGGCGCCGGCUGGGCAACAUUCCGAGGGGACCGUCCCCUCGGUAAAGGCGAAUCGGACCCA [U72A G80C], for which the self-cleavage was 0.219.

Regarding GGCCGGCAUGGUCCCAGCCUCCUCGCUGGCGCCGGCUGGGCAACAUUCCGAGGGGACCGUCCCCUCGGUAAAGGCGAAUAGGACCCA [U72A G80A], the self-cleavage was determined as 0.169.

For GGCCGGCAUGGUCCCAGCCUCCUCGCUGGCGCCGGCUGGGCAACAUUCCGAGGGGACCGUCCCCUCGGUAAAGCCGAAUGGGACCCA [U72A G74C], the self-cleavage was 0.339.

Regarding GGCCGGCAUGGUCCCAGCCUCCUCGCUGGCGCCGGCUGGGCAACAUUCCGAGGGGACCGUCCCCUCGGUAAAGGCGAAUGGCACCCA [U72A G82C], the self-cleavage was 0.208.

With GGCCGGCAUGGUCCCAGCCUCCUCGCUGGCGCCGGCUGGGCAACAUUCCGAGGGGACCGUCCCCUCGGUAAGGGCGAUUGGGACCCA [U72G A78U], the self-cleavage is 0.356.

As for GGCCGGCAUGGUCCCAGCCUCCUCGCUGGCGCCGGCUGGGCAACAUUCCGAGGGGACCGUCCCCUCGGUAAAGGCUAAUGGGACCCA [U72A G76U], the self-cleavage was 0.863.

Consider GGCCGGCAUGGUCCCAGCCUCCUCGCUGGCGCCGGCUGGGCAACAUUCCGAGGGGACCGUCCCCUCGGUAAAGGCCAAUGGGACCCA [U72A G76C], for which the self-cleavage came to 0.65.

As to GGCCGGCAUGGUCCCAGCCUCCUCGCUGGCGCCGGCUGGGCAACAUUCCGAGGGGACCGUCCCCUCGGUAACGGCGAAUGGGAUCCA [U72C C84U], the self-cleavage came to 0.284.

As for GGCCGGCAUGGUCCCAGCCUCCUCGCUGGCGCCGGCUGGGCAACAUUCCGAGGGGACCGUCCCCUCGGUAACGGCGAAUGGGGCCCA [U72C A83G], the self-cleavage was found to be 0.318.

Regarding GGCCGGCAUGGUCCCAGCCUCCUCGCUGGCGCCGGCUGGGCAACAUUCCGAGGGGACCGUCCCCUCGGUAACGGAGAAUGGGACCCA [U72C C75A], the self-cleavage was 0.256.

As to GGCCGGCAUGGUCCCAGCCUCCUCGCUGGCGCCGGCUGGGCAACAUUCCGAGGGGACCGUCCCCUCGGUAACGGUGAAUGGGACCCA [U72C C75U], the self-cleavage came to 0.192.

As for GGCCGGCAUGGUCCCAGCCUCCUCGCUGGCGCCGGCUGGGCAACAUUCCGAGGGGACCGUCCCCUCGGUAACGGCGAAUGGGACCCU [U72C A87U], the self-cleavage came out at 0.595.

In the case of GGCCGGCAUGGUCCCAGCCUCCUCGCUGGCGCCGGCUGGGCAACAUUCCGAGGGGACCGUCCCCUCGGUAACGGCGAAUUGGACCCA [U72C G80U], the self-cleavage was 0.0791.

Turning to GGCCGGCAUGGUCCCAGCCUCCUCGCUGGCGCCGGCUGGGCAACAUUCCGAGGGGACCGUCCCCUCGGUAAAGGCGAACGGGACCCA [U72A U79C], the self-cleavage is 0.248.

For the variant GGCCGGCAUGGUCCCAGCCUCCUCGCUGGCGCCGGCUGGGCAACAUUCCGAGGGGACCGUCCCCUCGGUAAGGGCGUAUGGGACCCA [U72G A77U], the self-cleavage was 0.185.
